Target: T4Lnano fusion protein (CBP - ER/K motif - T4L - linker - CaM)
Experiment: crystal structure

Substance: T4Lnano fusion protein (CBP - ER/K motif - T4L - linker - CaM)
- stoichiometry N: 2

Source: doi:10.1101/2020.09.29.318410
